Source: patent publication US7566555B2, “Method of expressing proteins comprising non-naturally-occurring amino acids” (Riken, priority 2002, dated 2009)

Experiments:
CHO cells = test: Effect on growth of CHO cells
Procedure: Next, 3-iodo-L-tyrosine was added to the medium to a final concentration of 0.3 mM (L-tyrosine was present at twice that concentration (FIG. 5B)).

[1] = test system: amber mutation in ras(Am); test: Amber suppression of ras(Am) in CHO cells, western blotting with anti-FLAG antibody; assay type: cell-based, Chinese hamster; settings: for suppression efficiency (comparison): Ras and EGFR amber mutants, tetracycline 1 μg/mL
Procedure: Transfection was carried out using 0.5 to 2 μg of DNA for each plasmid per 35 mm plate in accordance with the Lipofect AMINE 2000 (Gibco BRL) method. Opti-MEM 1 (Gibco BRL) was used for the medium. Cell extracts were prepared 24 hours after transfection and applied to SDS-PAGE followed by western blotting using anti-FLAG2 antibody (Sigma) and the ECL+ Immunodetection System (Amersham Pharmacia Biotech). Band intensity was measured using the LAS-1000 plus image analyzer (Fuji Film).
In order to analyze amber suppression, the tyrosine codon at position 32 in a synthetic ras gene truncated from the wild type c-Ha-Ras was mutated to an amber codon. In order to detect expression, a FLAG peptide tag was added to the C-terminals of the ras genes, ras(WT) and its amber mutant ras(Am), and to the C-terminal of E. coli TyrRS.
These ras gene were introduced into CHO cells, and their products were detected by western blotting of cell extracts using anti-FLAG antibody (FIG. 4A).

TyrRS = test: Aminoacylation reaction of TyrRS variants, inorganic phosphate detected with Biomol Green; assay type: biochemical, E. coli; set-up: key: +++: the activity detected with an enzyme concentration of 0.50 μM; ++: the activity detected with an enzyme concentration of 0.25 μM; the activity detected with an enzyme concentration of 0.25 μM, although the activity is lower than that represented by “++”; −: no activity detected with an enzyme concentration of 0.25 μM
Source text: More preferably, a mutant TyrRS can be used in which the location corresponding to tyrosine (Y) at position 37 is substituted with valine (V), leucine (L), isoleucine (I) or alanine (A), and the location corresponding to glutamine (Q) at position 195 is substituted with alanine (A), cysteine (C), serine (S) or asparagine (N).

N[C@@H](Cc1ccc(O)c(I)c1)C(=O)O [3-iodo-L-tyrosine, reference compound]
effect on cell reproduction (CHO cells; 0.3 mM in the medium): hardly any effect on cell reproduction

B1: TetBst0×1: tet02 sequence immediately before the suppressor tRNA gene, SEQ. ID NO. 30, single copy (nucleic acid)
DNA: TCTCCCTATCAGTGATAGAGATCGGAGGGGTAGCGAAGTGGCTAAACGCGGCGGACTCTAAATCCGCTCCCTTTGGGTTCGGCGGTTCGAATCCGTCCCCCTCCAGACAAGTGCGGTTTTTTTCTCCAGCTCCCG
modifications: a sequence of one of the induced expression systems prepared in Example 2 (TetBst0)
notes: ID NO; 30, single copy
suppression when tetracycline is not added ([1]; no tetracycline): nearly complete absence of suppression

B2: Wild Type (Y37, Q195): TyrRS (wild type) of E. coli, SEQ. ID NO. 29 (protein, listed as Escherichia coli)
chain: MASSNLIKQLQERGLVAQVTDEEALAERLAQGPIALYCGFDPTADSLHLGHLVPLLCLKRFQQAGHKPVALVGGATGLIGDPSFKAAERKLNTEETVQEWVDKIRKQVAPFLDFDCGENSAIAANNYDWFGNMNVLTFLRDIGKHFSVNQMINKEAVKQRLNREDQGISFTEFSYNLLQGYDFACLNKQYGVVLQIGGSDQWGNITSGIDLTRRLHQNQVFGLTVPLITKADGTKFGKTEGGAVWLDPKKTSPYKFYQFWINTADADVYRFLKFFTFMSIEEINALEEEDKNSGKAPRAQYVLAEQVTRLVHGEEGLQAAKRITECLFSGSLSALSEADFEQLAQDGVPMVEMEKGADLMQALVDSELQPSRGQARKTIASNAITINGEKQSDPEYFFKEEDRLFGRFTLLRRGKKNYCLICWK
effect on growth rate of CHO cells (CHO cells; expression from a transiently introduced plasmid): hardly affect the growth rate
Activity of TyrRS variants with 3-iodo-L-tyrosine (TyrRS; amino acid: 3-iodo-L-tyrosine): −
Activity of TyrRS variants with Tyrosine (TyrRS; amino acid: Tyrosine): +++

B3: TetBst2: tet02 sequence 20 bases upstream from the suppressor tRNA gene, SEQ. ID NO. 32 (nucleic acid)
DNA: TCTCCCTATCAGTGATAGAGATCCGCCGACACACGTACACGTCGGAGGGGTAGCGAAGTGGCTAAACGCGGCGGACTCTAAATCCGCTCCCTTTGGGTTCGGCGGTTCGAATCCGTCCCCCTCCAGACAAGTGCGGTTTTTTTCTCCAGCTCCCG
modifications: a sequence of one of the induced expression systems prepared in Example 2 (TetBst2)
suppression efficiency (comparison) [1]: lower than that of TetBst1

B4: TetBst1: tet02 sequence 10 bases upstream from the suppressor tRNA gene, SEQ. ID NO. 31 (nucleic acid)
DNA: TCTCCCTATCAGTGATAGAGATCCGTACACGTCGGAGGGGTAGCGAAGTGGCTAAACGCGGCGGACTCTAAATCCGCTCCCTTTGGGTTCGGCGGTTCGAATCCGTCCCCCTCCAGACAAGTGCGGTTTTTTTCTCCAGCTCCCG
modifications: a sequence of one of the induced expression systems prepared in Example 1 (TetBst1)
suppression efficiency (comparison) [1]: higher suppression efficiency than TetBst0
